Experimental data from paper PMC4356368, “Four crystal structures of human LLT1, a ligand of human NKR-P1, in varied glycosylation and oligomerization states” (Acta Crystallographica Section D: Biological Crystallography, 2015).
Each block holds one molecule with its values, some of them ahead of it.

What was measured:
[1] = molecular target: LLT1 produced in the HEK293T cell line with wild-type complex N-glycosylation (human); assay: AUC; sedimentation velocity, 50 000 rev/min, 20°C, absorbance 280 nm, 10 mM HEPES pH 7.5, 150 mM NaCl, 10 mM NaN3; several concentrations (HEK293T protein at 0.2 mg/ml and tenfold diluted; GnTI- protein at five concentrations); continuous size-distribution and monomer-dimer self-association models; dimer to monomers
[2] = molecular target: the molecule itself; assay: crystal structure; LLT1_D1 and LLT1_D2: deglycosylated protein, 30%(w/v) PEG 6000, 0.1 M HEPES pH 7.0, 294 K; one dimer in the asymmetric unit, P212121
[3] = molecular target: the molecule itself; assay: AUC; sedimentation velocity, 50 000 rev/min, 20°C, absorbance 280 nm, 10 mM HEPES pH 7.5, 150 mM NaCl, 10 mM NaN3; several concentrations (HEK293T protein at 0.2 mg/ml and tenfold diluted; GnTI- protein at five concentrations); continuous size-distribution and monomer-dimer self-association models; dimer to monomers
[4] = molecular target: the molecule itself; assay: crystal structure; LLT1_glyco: GlcNAc2Man5-glycosylated protein, 40%(v/v) PEG 300, 0.1 M citrate-phosphate pH 4.2, 288 K; P6322, hexamer of three dimers by crystal symmetry
[5] = molecular target: the molecule itself; assay: dynamic light scattering; 1 mg/ml in 10 mM HEPES, 150 mM NaCl, 10 mM NaN3 pH 7.5; 291, 298 and 303 K

stoichiometry N [1]: 2
Molecule: LLT1 produced in the HEK293T cell line with wild-type complex N-glycosylation (domain or fragment)

B1: Human LLT1 C-type lectin-like extracellular domain (Gln72-Val191, His176Cys), deglycosylated after the first N-acetylglucosamine unit (domain or fragment)
chain: ITGQAACPESWIGFQRKCFYFSDDTKNWTSSQRFCDSQDADLAQVESFQELNFLLRYKGPSDHWIGLSREQGQPWKWINGTEWTRQFPILGAGECAYLNDKGASSARCYTERKWICSKSDIHV
modifications: single N-linked GlcNAc left at Asn95 and Asn147 after Endo F1
notes: remnant of the secretion leader at the beginning of the chain; LLT1 (lectin-like transcript 1), human, UniProt Q9UHP7 isoform 1, CTL extracellular domain Gln72-Val191 with His176 to Cys176; Same polypeptide as m1; it differs only in the glycans; L-arginine-HCl (0.4 M) was added after deglycosylation; also called LLT1_mono; LLT1_D1
stoichiometry N [2]: 2

B2: Human LLT1 C-type lectin-like extracellular domain (Gln72-Val191, His176Cys) with homogeneous GlcNAc2Man5 N-glycosylation (domain or fragment)
chain: ITGQAACPESWIGFQRKCFYFSDDTKNWTSSQRFCDSQDADLAQVESFQELNFLLRYKGPSDHWIGLSREQGQPWKWINGTEWTRQFPILGAGECAYLNDKGASSARCYTERKWICSKSDIHV
modifications: N-linked GlcNAc2Man5 glycans at Asn95 and Asn147
notes: remnant of the secretion leader at the beginning of the chain; LLT1 (lectin-like transcript 1), human, UniProt Q9UHP7 isoform 1, CTL extracellular domain Gln72-Val191 with His176 to Cys176; the construct is described in Bláha et al. (2015); also called LLT1_glyco; glycosylated LLT1; source: HEK293S GnTI- cells, transiently transfected, secreted, purified (Talon IMAC, Superdex 200 SEC)
Kd [3]: ~20 µM | stoichiometry N [4]: 6 | stoichiometry N [5]: 2
